In the supplement of paper PMC10567573:

B1: RHOBTB2 (parent)
chain: HHHHGRDFLLRAASFDVCESVDEA

Variants of: B1
Test: protein stability index of a GFP-peptide fusion (GPS, HEK-293T) (PSI 1-6); higher = more stable
Details: c terminus: a fixed tail appended
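Note: lentivirally expressed fusions sorted by FACS into six bins by GFP to DsRed ratio, PSI derived from sequencing read proportions per bin multiplied by bin number.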

Variant	protein stability index
HHHHGRDFLLRAASFDVPESVDEA [C18P]	4.42
HHHHGRDFLLRAASFDVTESVDEA [C18T]	3.7
HHHHGRDFLLRAASFDVQESVDEA [C18Q]	4.03
HHHHGRDFLLRAASFDVFESVDEA [C18F]	3.54
HHHHGRDFLLRAASFDVGESVDEA [C18G]	4.24
HHHHGRDFLLRAASFDVLESVDEA [C18L]	2.9
HHHHGRDFLLRAASFDVYESVDEA [C18Y]	2.82
HHHHGRDFLLRAASFDVWESVDEA [C18W]	2.48
HHHHGRDFLLRAASFDVAESVDEA [C18A]	3.96
HHHHGRDFLLRAASFDVIESVDEA [C18I]	3.57
HHHHGRDFLLRAASFDVEESVDEA [C18E]	4.77
HHHHGRDFLLRAASFDVKESVDEA [C18K]	3.94
HHHHGRDFLLRAASFDVNESVDEA [C18N]	4.21
HHHHGRDFLLRAASFDVSESVDEA [C18S]	4.06
HHHHGRDFLLRAASFDVMESVDEA [C18M]	3.37
HHHHGRDFLLRAASFDVRESVDEA [C18R]	3.65
HHHHGRDFLLRAASFDVDESVDEA [C18D]	4.75
HHHHGRDFLLRAASFDVHESVDEA [C18H]	3.4
HHHHGRDFLLRAASFDVVESVDEA [C18V]	3.95
HHHHGRDFLLRAASFDVCESVQEA [D22Q]	3.09
HHHHGRDFLLRAASFDVCESVVEA [D22V]	2.91
HHHHGRDFLLRAASFDVCESVNEA [D22N]	3.14
HHHHGRDFLLRAASFDVCESVCEA [D22C]	2.56
HHHHGRDFLLRAASFDVCESVSEA [D22S]	3.44

Variant	protein stability index
HHHHGRDFLLRAASFDVCESVLEA [D22L]	2.33
HHHHGRDFLLRAASFDVCESVREA [D22R]	3.15
HHHHGRDFLLRAASFDVCESVPEA [D22P]	2.85
HHHHGRDFLLRAASFDVCESVMEA [D22M]	3.04
HHHHGRDFLLRAASFDVCESVEEA [D22E]	3.77
HHHHGRDFLLRAASFDVCESVTEA [D22T]	3
HHHHGRDFLLRAASFDVCESVKEA [D22K]	3.33
HHHHGRDFLLRAASFDVCESVFEA [D22F]	2.21
HHHHGRDFLLRAASFDVCESVIEA [D22I]	2.5
HHHHGRDFLLRAASFDVCESVYEA [D22Y]	2.44
HHHHGRDFLLRAASFDVCESVGEA [D22G]	3
HHHHGRDFLLRAASFDVCESVAEA [D22A]	3
HHHHGRDFLLRAASFDVCESVWEA [D22W]	1.82
HHHHGRDFLLRAASFDVCESVHEA [D22H]	2.99
HHHHGRDFLLRAASFDVCVSVDEA [E19V]	2.49
HHHHGRDFLLRAASFDVCPSVDEA [E19P]	3.06
HHHHGRDFLLRAASFDVCRSVDEA [E19R]	2.73
HHHHGRDFLLRAASFDVCDSVDEA [E19D]	3.72
HHHHGRDFLLRAASFDVCGSVDEA [E19G]	3.07
HHHHGRDFLLRAASFDVCASVDEA [E19A]	2.9
HHHHGRDFLLRAASFDVCFSVDEA [E19F]	2.22
HHHHGRDFLLRAASFDVCISVDEA [E19I]	2.17
HHHHGRDFLLRAASFDVCSSVDEA [E19S]	2.71
HHHHGRDFLLRAASFDVCMSVDEA [E19M]	2.44

Variant	protein stability index
HHHHGRDFLLRAASFDVCKSVDEA [E19K]	3
HHHHGRDFLLRAASFDVCNSVDEA [E19N]	3.54
HHHHGRDFLLRAASFDVCHSVDEA [E19H]	2.9
HHHHGRDFLLRAASFDVCCSVDEA [E19C]	2.42
HHHHGRDFLLRAASFDVCQSVDEA [E19Q]	3.34
HHHHGRDFLLRAASFDVCLSVDEA [E19L]	1.56
HHHHGRDFLLRAASFDVCYSVDEA [E19Y]	1.74
HHHHGRDFLLRAASFDVCWSVDEA [E19W]	2.2
HHHHGRDFLLRAASFDVCTSVDEA [E19T]	2.76
HHHHGRDFLLRAASFDVCEQVDEA [S20Q]	3.83
HHHHGRDFLLRAASFDVCEIVDEA [S20I]	2.73
HHHHGRDFLLRAASFDVCECVDEA [S20C]	2.94
HHHHGRDFLLRAASFDVCEDVDEA [S20D]	4.1
HHHHGRDFLLRAASFDVCEYVDEA [S20Y]	3.21
HHHHGRDFLLRAASFDVCENVDEA [S20N]	3.98
HHHHGRDFLLRAASFDVCEEVDEA [S20E]	4.46
HHHHGRDFLLRAASFDVCEVVDEA [S20V]	3.03
HHHHGRDFLLRAASFDVCELVDEA [S20L]	3.16
HHHHGRDFLLRAASFDVCERVDEA [S20R]	3.34
HHHHGRDFLLRAASFDVCEWVDEA [S20W]	2.39
HHHHGRDFLLRAASFDVCEGVDEA [S20G]	4.1
HHHHGRDFLLRAASFDVCEAVDEA [S20A]	3.08
HHHHGRDFLLRAASFDVCEKVDEA [S20K]	4.12
HHHHGRDFLLRAASFDVCETVDEA [S20T]	4

Variant	protein stability index
HHHHGRDFLLRAASFDVCEMVDEA [S20M]	2.71
HHHHGRDFLLRAASFDVCEPVDEA [S20P]	3.76
HHHHGRDFLLRAASFDVCEHVDEA [S20H]	2.81
HHHHGRDFLLRAASFDVCEFVDEA [S20F]	2.88
HHHHGRDFLLRAASRDVCESVDEA [F15R]	4.88
HHHHGRDFLLRAASKDVCESVDEA [F15K]	4.58
HHHHGRDFLLRAASWDVCESVDEA [F15W]	3.94
HHHHGRDFLLRAASVDVCESVDEA [F15V]	4.33
HHHHGRDFLLRAASHDVCESVDEA [F15H]	4.11
HHHHGRDFLLRAASNDVCESVDEA [F15N]	4.35
HHHHGRDFLLRAASPDVCESVDEA [F15P]	4.37
HHHHGRDFLLRAASCDVCESVDEA [F15C]	4.57
HHHHGRDFLLRAASDDVCESVDEA [F15D]	5.01
HHHHGRDFLLRAASQDVCESVDEA [F15Q]	4.1
HHHHGRDFLLRAASTDVCESVDEA [F15T]	4.74
HHHHGRDFLLRAASEDVCESVDEA [F15E]	4.86
HHHHGRDFLLRAASSDVCESVDEA [F15S]	4.76
HHHHGRDFLLRAASLDVCESVDEA [F15L]	3.24
HHHHGRDFLLRAASMDVCESVDEA [F15M]	4.74
HHHHGRDFLLRAASADVCESVDEA [F15A]	4.78
HHHHGRDFLLRAASGDVCESVDEA [F15G]	4.38
HHHHGRDFLLRAASYDVCESVDEA [F15Y]	3.92
HHHHGRDFLLRAASIDVCESVDEA [F15I]	3.94
HHHHGRDFLLRAAAFDVCESVDEA [S14A]	3.55

Variant	protein stability index
HHHHGRDFLLRAAYFDVCESVDEA [S14Y]	2.79
HHHHGRDFLLRAADFDVCESVDEA [S14D]	4.13
HHHHGRDFLLRAAIFDVCESVDEA [S14I]	2.73
HHHHGRDFLLRAAEFDVCESVDEA [S14E]	3.89
HHHHGRDFLLRAARFDVCESVDEA [S14R]	2.62
HHHHGRDFLLRAANFDVCESVDEA [S14N]	4.5
HHHHGRDFLLRAACFDVCESVDEA [S14C]	3.36
HHHHGRDFLLRAAGFDVCESVDEA [S14G]	3.15
HHHHGRDFLLRAAWFDVCESVDEA [S14W]	2.66
HHHHGRDFLLRAAHFDVCESVDEA [S14H]	3.57
HHHHGRDFLLRAAFFDVCESVDEA [S14F]	3.03
HHHHGRDFLLRAAQFDVCESVDEA [S14Q]	4.17
HHHHGRDFLLRAAVFDVCESVDEA [S14V]	2.84
HHHHGRDFLLRAAKFDVCESVDEA [S14K]	3.17
HHHHGRDFLLRAATFDVCESVDEA [S14T]	3.47
HHHHGRDFLLRAALFDVCESVDEA [S14L]	2.88
HHHHGRDFLLRAAPFDVCESVDEA [S14P]	4.22
HHHHGRDFLLRAAMFDVCESVDEA [S14M]	3.05
HHHHGRDFLLRAASFDVCESVDFA [E23F]	2.37
HHHHGRDFLLRAASFDVCESVDGA [E23G]	3.21
HHHHGRDFLLRAASFDVCESVDDA [E23D]	3.39
HHHHGRDFLLRAASFDVCESVDCA [E23C]	2.67
HHHHGRDFLLRAASFDVCESVDHA [E23H]	2.93
HHHHGRDFLLRAASFDVCESVDAA [E23A]	2.94

Variant	protein stability index
HHHHGRDFLLRAASFDQCESVDEA [V17Q]	4.24
HHHHGRDFLLRAASFDSCESVDEA [V17S]	4.11
HHHHGRDFLLRAASFDHCESVDEA [V17H]	3.55
HHHHGRDFLLRAASFDLCESVDEA [V17L]	3.2
HHHHGRDFLLRAASFDMCESVDEA [V17M]	3.68
HHHHGRDFLLRAASFDKCESVDEA [V17K]	3.94
HHHHGRDFLLRAASFDICESVDEA [V17I]	3.37
HHHHGRDFLLRAASFDACESVDEA [V17A]	4.04
HHHHGRDFLLRAASFDECESVDEA [V17E]	4.56
HHHHGRDFLLRAASFDGCESVDEA [V17G]	3.99
HHHHGRDFLLRAASFDFCESVDEA [V17F]	3.12
HHHHGRDFLLRAASFDNCESVDEA [V17N]	4
HHHHGRDFLLRAASFDCCESVDEA [V17C]	4.17
HHHHGRDFLLRAASFDPCESVDEA [V17P]	4.7
HHHHGRDFLLRAASFDRCESVDEA [V17R]	3.52
HHHHGRDFLLRAASFDYCESVDEA [V17Y]	4.16
HHHHGRDFLLRAASFDDCESVDEA [V17D]	4.54
HHHHGRDFLLRAASFDWCESVDEA [V17W]	3
HHHHGRDFLLRAASFDTCESVDEA [V17T]	3.53
HHHHGRDFLLRALSFDVCESVDEA [A13L]	3.2
HHHHGRDFLLRAVSFDVCESVDEA [A13V]	3.14
HHHHGRDFLLRATSFDVCESVDEA [A13T]	3.49
HHHHGRDFLLRASSFDVCESVDEA [A13S]	3.96
HHHHGRDFLLRARSFDVCESVDEA [A13R]	3.73

Variant	protein stability index
HHHHGRDFLLRAWSFDVCESVDEA [A13W]	2.45
HHHHGRDFLLRAMSFDVCESVDEA [A13M]	2.49
HHHHGRDFLLRAPSFDVCESVDEA [A13P]	4.66
HHHHGRDFLLRAKSFDVCESVDEA [A13K]	4.09
HHHHGRDFLLRANSFDVCESVDEA [A13N]	4.38
HHHHGRDFLLRAYSFDVCESVDEA [A13Y]	2.87
HHHHGRDFLLRAQSFDVCESVDEA [A13Q]	3.84
HHHHGRDFLLRAASFCVCESVDEA [D16C]	1.97
HHHHGRDFLLRAASFVVCESVDEA [D16V]	2.33
HHHHGRDFLLRAASFTVCESVDEA [D16T]	3.36
HHHHGRDFLLRAASFGVCESVDEA [D16G]	3.06
HHHHGRDFLLRAASFHVCESVDEA [D16H]	2.84
HHHHGRDFLLRAASFLVCESVDEA [D16L]	2.11
HHHHGRDFLLRAASFYVCESVDEA [D16Y]	1.67
HHHHGRDFLLRAASFEVCESVDEA [D16E]	3.74
HHHHGRDFLLRAASFMVCESVDEA [D16M]	2.44
HHHHGRDFLLRAASFPVCESVDEA [D16P]	3.19
HHHHGRDFLLRAASFNVCESVDEA [D16N]	3.31
HHHHGRDFLLRAASFFVCESVDEA [D16F]	1.89
HHHHGRDFLLRAASFQVCESVDEA [D16Q]	3.5
HHHHGRDFLLRAASFSVCESVDEA [D16S]	3.17
HHHHGRDFLLRAASFAVCESVDEA [D16A]	3.37
HHHHGRDFLLRAASFIVCESVDEA [D16I]	2.14
HHHHGRDFLLRAASFKVCESVDEA [D16K]	2.79

Variant	protein stability index
HHHHGRDFLLRAASFRVCESVDEA [D16R]	2.48
HHHHGRDFLLRAASFDVCESSDEA [V21S]	3.62
HHHHGRDFLLRAASFDVCESADEA [V21A]	3.8
HHHHGRDFLLRAASFDVCESLDEA [V21L]	3.62
HHHHGRDFLLRAASFDVCESNDEA [V21N]	4.18
HHHHGRDFLLRAASFDVCESHDEA [V21H]	3.08
HHHHGRDFLLRAASFDVCESEDEA [V21E]	4.51
HHHHGRDFLLRAASFDVCESPDEA [V21P]	3.61
HHHHGRDFLLRAASFDVCESQDEA [V21Q]	4.2
HHHHGRDFLLRAASFDVCESKDEA [V21K]	4.5
HHHHGRDFLLRAASFDVCESCDEA [V21C]	3.25
HHHHGRDFLLRAASFDVCESGDEA [V21G]	4.17
HHHHGRDFLLRAASFDVCESMDEA [V21M]	3.92
HHHHGRDFLLRAASFDVCESRDEA [V21R]	3.68
HHHHGRDFLLRAASFDVCESWDEA [V21W]	3.61
HHHHGRDFLLRAASFDVCESFDEA [V21F]	3.47
HHHHGRDFLLRAASFDVCESDDEA [V21D]	4.84
HHHHGRDFLLRAASFDVCESTDEA [V21T]	3.56
HHHHGRDFLLRAASFDVCESIDEA [V21I]	3.96
HHHHGRDFLLRAASFDVCESYDEA [V21Y]	3.66
